From patent publication US20180000768A1, “INTESTINAL FXR AGONISM ENHANCES GLP-1 SIGNALING TO RESTORE PANCREATIC BETA CELL FUNCTIONS” (Salk Institute for Biological Studies, priority 2015, published 2018)

What was measured:
[1] = system: Leptin-deficient ob/ob mice; assay: metabolic phenotype and glucose homeostasis of treated ob/ob mice; format: in vivo, mouse; settings: FGF15 treatment for 2 weeks
Description: Leptin-deficient ob/ob mice were purchased from Jackson laboratory (stock no. 000632). Each mouse consumed 100 mg per kg of body weight Fex (in corn oil) per day by oral gavage for 5 weeks. For in vivo analog study, each mouse consumed 50 mg per kg of body weight Fex-D (in corn oil) per day by oral gavage for 14 days. For GLP-1 receptor antagonist study, each mouse was daily treated with 100 μg per kg of body weight Exendin 9-39 amide (Abcam) via intraperitoneal injection for 2 weeks. For INT-777 study, each mouse was daily gavaged with 60 mg per kg of body weight INT-777 (in corn oil) for 5 weeks. […] Core body temperature was measured with a clinical rectal thermometer (Thermalert model TH-5; Physitemp). […] Tail blood was drawn at indicated time intervals, and blood glucose level was measured with a One Touch Ultra glucometer (LifeScan). Body composition was measured with Echo MRI-100 body composition analyzer (Echo Medical Systems). […]
Real-time metabolic analyses were conducted in a Comprehensive Lab Animal Monitoring System (Columbus Instruments). CO2 production, O2 consumption, RQ (relative rates of carbohydrate versus fat oxidation) and ambulatory counts were determined for 4 consecutive days and nights, with at least 24-h for adaptation before data recording. […]

isolated islets = assay: gene expression after direct ex vivo treatment of isolated islets; format: cell-based, mouse; settings: 24 hours ex vivo, XL335 1 μM, Fex 1 μM
Description: Leptin-deficient ob/ob mice were treated daily with vehicle, Fex, or the analogue Fex-D (50 mg/kg) via P.O. for 14 days (A) Chemical structures of fexaramine and Fex-D (B) Schematic of the experimental design (C) Serum glucose levels (D) Glucose tolerance test (E) Insulin secretion in vivo (F) GLP-1 secretion in vivo (G) Heatmap showing hierarchal clustering of gene expression changes in islet induced by Fex (100 mg/kg, 4 wks) and FexD (50 mg/kg, 2 weeks) treatment in ob/ob mice (in vivo); by treatment of islets with XL335 (1 μM), Fex (1 μM), mFgf15 and hFgf19 (24 hours ex vivo); and mFgf15 (0.15 mg/kg, 2 weeks) and INT777 (Tgr5, 60 mg/kg, 4 weeks) treatment of ob/ob mice (in vivo). Gene expression was measured by RNA-Seq and changes are expressed as Z-score. (H) Ven diagram of changes in gene expression in pancreatic islets induced by FEX (100 mg/kg for 5 weeks) and FEX-D (50 mg/kg for 14 days). […] Data represent the mean±STD. Statistical analysis was performed with the Student's t test. *p<0.05, **p<0.01.
Next, primary islets were isolated from mice treated by Fex-D to compare gene expression changes.

ob/ob mice = assay: gene expression (RNA-Seq, QPCR) in tissues of treated ob/ob mice; format: in vivo, mouse; settings: FGF15 injection
Description: Total RNA was isolated from cell pellets treated with RNAlater using the RNA mini kit (Qiagen) and treated with DNaseI (Qiagen) for 30 minutes at room temperature. Sequencing libraries were prepared from 100-500 ng total RNA using the TruSeq RNA Sample Preparation Kit v2 (Illumina) according to the manufacturer's protocol. Briefly, mRNA was purified, fragmented, and used for first-, then second-strand cDNA synthesis followed by adenylation of 3′ ends. Samples were ligated to unique adapters and subjected to PCR amplification. Mulitplexed libraries were then validated using the 2100 BioAnalyzer (Agilent), normalized, and pooled for sequencing. RNA-Seq libraries prepared from two biological replicates for each experimental condition were sequenced on the Illumina HiSeq 2500 using bar-coded multiplexing and a 100 bp read length.
Image analysis and base calling were performed with Illumina CASAVA-1.8.2. This yielded a median of 29.9M usable reads per sample. Short read sequences were mapped to a UCSC mm9 reference sequence using the RNA-seq aligner STAR. Known splice junctions from mm9 were supplied to the aligner and de novo junction discovery was also permitted. […] Transcript expression was calculated as gene-level relative abundance in fragments per kilobase of exon model per million mapped fragments and employed correction for transcript abundance bias. […]

B1: FGF15: FGF15 protein injected in ob/ob mice or applied to islets (protein, UniProt O35622 26-218, looked up)
Fibroblast growth factor 15: RPLAQQSQSVSDEDPLFLYGWGKITRLQYLYSAGPYVSNCFLRIRSDGSVDCEEDQNERNLLEFRAVALKTIAIKDVSSVRYLCMSADGKIYGLIRYSEEDCTFREEMDCLGYNQYRSMKHHLHIIFIQAKPREQLQDQKPSNFIPVFHRSFFETGDQLRSKMFSLPLESDSMDPFRMVEDVDHLVKSPSFQK
[1]
  blood glucose levels: significantly reduced
[1]; soleus
  glucose uptake in the skeletal muscle: without affecting
Isolated islets
  transcriptional changes seen in islets in vivo with Fex and Fex-D: not observed
ob/ob mice
  reg family gene expression in islets: upregulated
